Source: US20140286976A1 (ARGEN X B V, published 2014)

Biological target: T1, Human c-Met ECD (Flag and strep tag) (human, UniProt P08581 25-932)
T1 construct: also called HMet; Human Wt c-Met; not shown: Flag and strep tag
Experiment: ELISA; mAb immobilized (2 µg/ml), c-Met protein added, streptavidin-HRP

T1 sequence (P08581 25-932): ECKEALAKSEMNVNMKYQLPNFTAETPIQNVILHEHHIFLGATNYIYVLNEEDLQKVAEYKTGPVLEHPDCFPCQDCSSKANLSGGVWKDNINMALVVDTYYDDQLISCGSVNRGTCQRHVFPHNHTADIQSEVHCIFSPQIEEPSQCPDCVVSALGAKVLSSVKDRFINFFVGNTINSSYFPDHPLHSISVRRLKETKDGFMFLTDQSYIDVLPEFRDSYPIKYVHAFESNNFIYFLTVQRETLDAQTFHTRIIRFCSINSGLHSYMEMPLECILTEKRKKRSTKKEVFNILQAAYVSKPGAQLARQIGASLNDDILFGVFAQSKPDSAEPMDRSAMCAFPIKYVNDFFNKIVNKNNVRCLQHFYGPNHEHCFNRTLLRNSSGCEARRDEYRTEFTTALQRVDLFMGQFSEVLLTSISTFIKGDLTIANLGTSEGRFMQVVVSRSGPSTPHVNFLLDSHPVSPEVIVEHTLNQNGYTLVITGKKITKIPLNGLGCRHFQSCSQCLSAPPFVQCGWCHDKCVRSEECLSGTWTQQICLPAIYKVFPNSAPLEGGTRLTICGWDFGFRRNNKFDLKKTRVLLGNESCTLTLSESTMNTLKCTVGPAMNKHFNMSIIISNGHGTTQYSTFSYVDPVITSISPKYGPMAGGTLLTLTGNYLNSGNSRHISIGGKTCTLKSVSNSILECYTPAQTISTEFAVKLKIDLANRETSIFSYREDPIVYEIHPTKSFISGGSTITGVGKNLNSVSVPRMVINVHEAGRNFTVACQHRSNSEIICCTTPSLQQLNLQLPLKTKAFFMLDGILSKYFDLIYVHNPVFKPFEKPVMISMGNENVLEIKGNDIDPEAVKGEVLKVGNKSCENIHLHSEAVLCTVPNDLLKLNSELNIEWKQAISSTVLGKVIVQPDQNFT

EC50: 0.045 µg/mL
B1: 48A2 (antibody, V domains shown)
VH: EVQLVQPGVELRNPGASVKVSCKASGYIFTMNSIDWVRQAPGQGLEWMGRIDPEDGGTKYAQKFQGRVTFTADTSTSTAYVELNSLRSEDTAVYYCARVDDYYLGYDYWGQGTQVTVSS
VL: DIVMTQTPTSVTASAGDKVTINCKSSQSVLFSSNQKNYLAWYQQRLGQSPRLLIYWASIRESGVPDRFSGSGSATDFTLTISNFQPEDAAVYYCQQGYSFPYSFGSGTRLEIR
